Results: paper PMC12945441 (2022)

Molecular target: SARS-CoV-2 Wuhan-Hu-1 receptor-binding domain (SARS-CoV-2 Wuhan-Hu-1)
Experiment: ELISA

B1: S2X324 mAb (antibody, V domains shown)
VH: QITLKESGPTLVKPTQTLTLTCTFSGFSVTTSGVGVGWIRQPPGKALEYLALIYWDDDKRYSTSLKSRLTITKDTSKNQVVLTMTNMDPVDTATYYCARHTIPSIFDYWGQGILVTVSS
VL: QPVLTQPASVSGSPGQSITISCTATSSDVGNYNYVSWYQHHPGKAPKLMIYEVSNRPSGVSNRFSGSKSGNTASLTISGLQAEDEADYYCSSYTSSSLLFGGGTKLTVL
- IC50: 0.0267 µg/mL
